Values quoted from earlier work, collected in PMC7349879.

Assays:
EpCAM (Homo sapiens) = EpCAM (Homo sapiens) (UniProt P16422)
[1] = target: EpCAM cis-dimer (Homo sapiens) (UniProt P16422)
β-catenin (Homo sapiens) = β-catenin (Homo sapiens) (UniProt P35222)
Chain of UniProt P35222 (P35222 2-781): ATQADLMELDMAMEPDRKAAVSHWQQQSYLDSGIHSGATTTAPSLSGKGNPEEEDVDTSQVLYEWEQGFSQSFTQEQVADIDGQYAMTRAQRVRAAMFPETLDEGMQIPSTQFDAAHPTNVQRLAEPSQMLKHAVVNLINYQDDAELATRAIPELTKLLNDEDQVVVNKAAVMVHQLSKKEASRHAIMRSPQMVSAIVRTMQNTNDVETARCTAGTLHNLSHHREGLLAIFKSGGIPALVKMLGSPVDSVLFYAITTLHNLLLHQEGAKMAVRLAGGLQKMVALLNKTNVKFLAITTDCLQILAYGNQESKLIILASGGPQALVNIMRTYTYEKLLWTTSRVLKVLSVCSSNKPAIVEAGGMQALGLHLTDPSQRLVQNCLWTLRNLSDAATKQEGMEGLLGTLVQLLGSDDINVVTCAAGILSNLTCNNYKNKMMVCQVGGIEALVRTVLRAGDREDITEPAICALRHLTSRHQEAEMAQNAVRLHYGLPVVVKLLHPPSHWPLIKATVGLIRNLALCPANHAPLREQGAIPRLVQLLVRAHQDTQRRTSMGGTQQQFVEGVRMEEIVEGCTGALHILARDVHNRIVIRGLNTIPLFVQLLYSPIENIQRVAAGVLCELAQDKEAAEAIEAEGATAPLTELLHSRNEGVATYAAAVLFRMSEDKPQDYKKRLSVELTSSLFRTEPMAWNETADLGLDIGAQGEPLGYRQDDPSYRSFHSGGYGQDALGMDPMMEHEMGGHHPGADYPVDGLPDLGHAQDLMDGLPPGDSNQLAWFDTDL

Substance: EpCAM (from UniProt P16422)
- Kd (EpCAM (Homo sapiens)): < 0.01 µM

Substance: EpCAM cis-dimer (from UniProt P16422)
- Kd [1]: 10 µM

Substance: FHL2 (from UniProt Q14192)
- Kd (β-catenin (Homo sapiens)): 1.08 µM
